The results in this text go back to the supplement of paper PMC7877785.

The nature of the series: self-splicing fitness, log relative to wild type (ln ratio); higher = more splicing; Tetrahymena group I intron in knt gene, E. coli kanamycin selection, DiMSum; sequences stand for … in CUCUCU…GGAGGGAAAAGUUAUCAGGCAUGCACCUGGUAGCUAGUCUUUAAACCAAUAGAUUGCAUCGGUUUAAAAGGCAAGACCGUCAAAUUGCGGGAAAGGGGUCAACAGCCGUUCAGUACCAAGUCUCAGGGGAAACUUUGAGAUGGCCUUGCAAAGGGUAUGGUAAUAAGCUGACGGACAUGGUCCUAACCACGCAGCCAAGUCCUAAGUCAACAGAUCUUCUGUUGAUAUGGAUGCAGUUCACAGACUAAAUGUCGGUCGGGGAAGAUGUAUUCUUCUCAUAAGAUAUAGUCGGACCUCUCCUUAAUGGGAGCUAGCGGAUGAAGUGAUGCAACACUGGAGCCGCUGGGAACUAAUUUGUAUGCGAAAGUAUAUUGAUUAGUUUUGGAGUACUCGUGGUCG
The essentials:
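Six replicate transformations of E. coli BL21(DE3) with a pET-22b(+) library were grown overnight at 37°C or 30°C. The library randomised all eight P1ex-region intron nucleotides, the intron lying in the knt kanamycin-resistance gene, and plates were LB agar with or without 25 μg/mL kanamycin plus 100 μg/mL carbenicillin, 50 μM IPTG and 0.2% rhamnose. Pooled colonies were amplicon-sequenced on an Illumina HiSeq 2500, and fitness is the DiMSum error-weighted combination of wild-type-normalised replicate fold changes, kanamycin versus none.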

± gives the uncertainty stated by the source.

On to GCCGAGCAAUAUUACGAAUU, for which the “self-splicing fitness (ln)” value is, setting by setting: (30 °C) -2.59 ± 0.11; (37 °C) -2.21 ± 0.15.

As for GGCUAGCAAUAUUACGACCC, the “self-splicing fitness (ln)” value reads like this: (30 °C) -1.79 ± 0.36; (37 °C) -0.966 ± 0.37. The corresponding values for GAAAAGCAAUAUUACGAAGG are -3.27 ± 0.24 and -3.01 ± 0.37. Taken in the same sequence, the figures for CGUAAGCAAUAUUACGAACC were -0.935 ± 0.24 and -1.46 ± 0.24. The corresponding values for CCAGAGCAAUAUUACGCACG are -2.06 ± 0.22 and 0.34 ± 0.17. Take CAUAAGCAAUAUUACGACUG: the “self-splicing fitness (ln)” value by setting is: (30 °C) -0.582 ± 0.072; (37 °C) -0.476 ± 0.1. As for CCUUAGCAAUAUUACGCCCA, for the setting “30 °C”, the “self-splicing fitness (ln)” value was -1.96 ± 0.34.

As for AGGUAGCAAUAUUACGCUUU, the “self-splicing fitness (ln)” value is -3.041 ± 0.022 (30 °C) and -1.76 ± 0.036 (37 °C). Taken in the same sequence, the figures for GCCUAGCAAUAUUACGGACA were -1.03 ± 0.097 and -0.277 ± 0.11. The corresponding values for AAGUAGCAAUAUUACGCAGG are -3.61 ± 0.27 and -1.87 ± 0.15. The corresponding values for UGAUAGCAAUAUUACGAGCG are -0.553 ± 0.11 and 0.433 ± 0.15. As for AAGAAGCAAUAUUACGGACC, the “self-splicing fitness (ln)” value reads like this: (30 °C) -1.28 ± 0.13; (37 °C) -0.312 ± 0.18. The corresponding values for UGAUAGCAAUAUUACGUGGU are -2.4 ± 0.21 and -2.73 ± 0.23. Turning to UAGUAGCAAUAUUACGGUAC, the “self-splicing fitness (ln)” value (30 °C) is -3.85 ± 0.48.

As to CGCUAGCAAUAUUACGAAAG, the “self-splicing fitness (ln)” value (30 °C) is -1.17 ± 0.091 and the “self-splicing fitness (ln)” value (37 °C) was -0.395 ± 0.1. Regarding GAUAAGCAAUAUUACGCACC, the “self-splicing fitness (ln)” value (30 °C) was -1.96 ± 0.16 and the “self-splicing fitness (ln)” value (37 °C) is -0.327 ± 0.2. The corresponding values for CUUAAGCAAUAUUACGUGUC are -4.45 ± 0.21 and -1.8 ± 0.15. The corresponding values for GGUCAGCAAUAUUACGAGAU are -2.39 ± 0.14 and -2.31 ± 0.23. In the case of UGCCAGCAAUAUUACGAGAA, the “self-splicing fitness (ln)” value (37 °C) is -0.955 ± 0.25. Consider UCGCAGCAAUAUUACGCACA, for which the “self-splicing fitness (ln)” value is, setting by setting: (30 °C) -0.0778 ± 0.1; (37 °C) -0.131 ± 0.13. Taken in the same sequence, the figures for GCCCAGCAAUAUUACGGAGA were -0.433 ± 0.062 and -0.0159 ± 0.072. Taken in the same sequence, the figures for CCAUAGCAAUAUUACGUCCA were -1.27 ± 0.18 and -1.85 ± 0.33. Taken in the same sequence, the figures for ACAGAGCAAUAUUACGCAUC were -4.07 ± 0.25 and -2.59 ± 0.23. For GGACAGCAAUAUUACGGCUC, the “self-splicing fitness (ln)” value runs as follows: (30 °C) 0.0372 ± 0.08; (37 °C) 0.377 ± 0.11. Turning to AGAUAGCAAUAUUACGCGAU, the “self-splicing fitness (ln)” value reads like this: (30 °C) -2.53 ± 0.25; (37 °C) -2.15 ± 0.27.

Consider GGCGAGCAAUAUUACGAGCG, for which the “self-splicing fitness (ln)” value (30 °C) is -0.88 ± 0.14 and the “self-splicing fitness (ln)” value (37 °C) is -0.433 ± 0.17. As for GAUAAGCAAUAUUACGGGGA, the “self-splicing fitness (ln)” value (37 °C) was -2.16 ± 0.23. As to AGGUAGCAAUAUUACGUGGU, the “self-splicing fitness (ln)” value is -3.697 ± 0.024 (30 °C) and -2.33 ± 0.036 (37 °C). The corresponding values for CGCCAGCAAUAUUACGAUUC are -4.81 ± 0.46 and -3.22 ± 0.35. Taken in the same sequence, the figures for AUCGAGCAAUAUUACGCCGG were -1.43 ± 0.22 and -1.57 ± 0.3.

For CUUAAGCAAUAUUACGUGUG, the “self-splicing fitness (ln)” value is -1.18 ± 0.061 (30 °C) and -0.604 ± 0.074 (37 °C). On to AGGUAGCAAUAUUACGCAGC, for which the “self-splicing fitness (ln)” value reads like this: (30 °C) -3.808 ± 0.038; (37 °C) -2.67 ± 0.046. In the case of UGAGAGCAAUAUUACGAUUA, the “self-splicing fitness (ln)” value is -0.816 ± 0.19 (30 °C) and -0.653 ± 0.3 (37 °C). The corresponding values for UCACAGCAAUAUUACGAGGA are -1.73 ± 0.13 and -1.65 ± 0.13.

Take UACCAGCAAUAUUACGCCCG: the “self-splicing fitness (ln)” value (30 °C) was -0.0448 ± 0.11 and the “self-splicing fitness (ln)” value (37 °C) is -0.0962 ± 0.14. Taken in the same sequence, the figures for ACGGAGCAAUAUUACGUACU were -1.69 ± 0.091 and -2.32 ± 0.16. The corresponding values for GCCCAGCAAUAUUACGGGAG are -0.834 ± 0.057 and -0.496 ± 0.067. For AUUGAGCAAUAUUACGUACC, the “self-splicing fitness (ln)” value (37 °C) was -1.17 ± 0.46. For the sequence GCCAAGCAAUAUUACGACCU, the “self-splicing fitness (ln)” value reads like this: (30 °C) -1.34 ± 0.11; (37 °C) -1.54 ± 0.15.
